Here are results for two substances from paper doi:10.1101/2020.09.10.288878.

The target of this experiment is taxol-stabilized microtubules polymerised from porcine brain tubulin (porcine) (UniProt P02550). The experiment in a line: co-sedimentation.

Consider “MBP-MTB-12Q (MBP-tagged Sli15 microtubule binding domain, twelve basic SAH residues to glutamine) (domain or fragment)”, for which the decrease in the pellet fraction against MBP-MTB-WT worked out at 20%.
Next, “MBP-MTB-ΔSAH (MBP-tagged Sli15 microtubule binding domain with the SAH region deleted) (domain or fragment)”: 20%.
